Measurements: patent US20240209076A1 (KODIAK SCIENCES, published 2024)
Blank lines part the entries; values can stand above or below the binder they belong to.

Tests used:
recombinant human IL-6 [1] = biological target: T1, recombinant human IL-6 (human, UniProt P05231 30-212); assay: SPR (Biacore), supernatant IgG on Protein A, 25 C
T1 construct: Flowed in solution over the captured antibodies
T1 sequence (P05231 30-212 limits assumed): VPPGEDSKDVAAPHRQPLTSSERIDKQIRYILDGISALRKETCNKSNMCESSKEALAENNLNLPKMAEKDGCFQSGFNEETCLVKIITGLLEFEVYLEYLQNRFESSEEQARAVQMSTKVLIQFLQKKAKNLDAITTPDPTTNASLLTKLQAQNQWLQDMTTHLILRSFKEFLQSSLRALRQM

recombinant human IL-6 [2] = biological target: T1, recombinant human IL-6; assay: SPR (Biacore), purified IgG on Protein A, 37 C
Method: (§1) Antibodies were captured on a Protein A chip (GE) by injecting 1:20 dilution of cell supernatant at 10 μL/min for 60 seconds. […] The sensor chip was regenerated by a 60 seconds injection of 10 mM Glycine pH 1.7 at flow rate of 50 μL/min. […] For this setup, 1 μg/mL of purified antibody was injected over a Protein A chip at 10 μL/min for 25-28 seconds. Data analysis for supernatant and purified samples were performed using BIAevaluation software (GE). All sensorgrams were double reference subtracted and fit using a 1:1 Langmuir binding model.

recombinant human IL-6 [3] = biological target: T2, recombinant human IL-6 (human, UniProt P05231 30-212); assay: SPR Biacore, supernatant Ab on Protein A chip, IL-6 analyte, 25 C
T2 construct: Bought protein
Method: as §1
T2 sequence (P05231 30-212 limits assumed): as above

recombinant human IL-6 [4] = biological target: T2, recombinant human IL-6; assay: SPR Biacore, purified Ab on Protein A chip, IL-6 analyte, 37 C
Method: as §1

Kd (recombinant human IL-6 [1]): 0.33 nM
koff (recombinant human IL-6 [1]): 0.000161 s⁻¹
kon (recombinant human IL-6 [1]): 487000 M⁻¹ s⁻¹
Kd (recombinant human IL-6 [2]): 0.719 nM
koff (recombinant human IL-6 [2]): 0.000764 s⁻¹
kon (recombinant human IL-6 [2]): 1.06e+06 M⁻¹ s⁻¹
B3: anti-IL-6 antibody, heavy chain WT, light chain I27W (antibody, IgG1, V domains shown)
VH: EVQLVESGGGLVQPGGSLRLSCAASGFTFSPFAMSWVRQAPGKGLEWVAKISPGGSWTYYSDTVTGRFTFSLDTSKSTAYLQMNSLRAEDTAVYYCARQLWGYYALDIWGQGTLVTVSS
VL: DIQLTQSPSSLSASVGDRVTITCSASWSVSYMYWYQQKPGKAPKLLIYDMSNLASGVPSRFSGSGSGTDFTLTISSLQPEDFATYYCMQWSGYPYTFGQGTKVEIK
notes: Full IgG1 tested; V domains derived as in m2

Kd (recombinant human IL-6 [3]): 0.323 nM
koff (recombinant human IL-6 [3]): 0.000214 s⁻¹
kon (recombinant human IL-6 [3]): 462000 M⁻¹ s⁻¹
Kd (recombinant human IL-6 [4]): 0.556 nM
koff (recombinant human IL-6 [4]): 0.000757 s⁻¹
kon (recombinant human IL-6 [4]): 1.15e+06 M⁻¹ s⁻¹
B5: anti-IL-6 antibody, heavy chain variant I (M34I, G66D, I108V) / light chain variant IV (M32L, M50A, N52S, M88Q) (antibody, V domains shown)
VH: EVQLVESGGGLVQPGGSLRLSCAASGFTFSPFAISWVRQAPGKGLEWVAKISPGGSWTYYSDTVTDRFTFSLDTSKSTAYLQMNSLRAEDTAVYYCARQLWGYYALDVWGQGTLVTVSS
VL: DIQLTQSPSSLSASVGDRVTITCSASISVSYLYWYQQKPGKAPKLLIYDASSLASGVPSRFSGSGSGTDFTLTISSLQPEDFATYYCQQWSGYPYTFGQGTKVEIK
notes: See note of m39; also called M34I, G66D, I108V/ M32L, M50A, N52S, M88Q; I/IV

Kd (recombinant human IL-6 [3]): 0.386 nM
Kd (recombinant human IL-6 [4]): 0.602 nM
koff (recombinant human IL-6 [4]): 0.00073 s⁻¹
B6: anti-IL-6 antibody, heavy chain variant I (M34I, G66D, I108V) / light chain variant V (M32L, M50D, M88Q) (antibody, V domains shown)
VH: EVQLVESGGGLVQPGGSLRLSCAASGFTFSPFAISWVRQAPGKGLEWVAKISPGGSWTYYSDTVTDRFTFSLDTSKSTAYLQMNSLRAEDTAVYYCARQLWGYYALDVWGQGTLVTVSS
VL: DIQLTQSPSSLSASVGDRVTITCSASISVSYLYWYQQKPGKAPKLLIYDDSNLASGVPSRFSGSGSGTDFTLTISSLQPEDFATYYCQQWSGYPYTFGQGTKVEIK
notes: See note of m39; also called M34I, G66D, I108V/ M32L, M50D, M88Q; I/V

Kd (recombinant human IL-6 [3]): 0.552 nM
koff (recombinant human IL-6 [3]): 0.0002 s⁻¹
Kd (recombinant human IL-6 [4]): 0.625 nM
koff (recombinant human IL-6 [4]): 0.000702 s⁻¹
kon (recombinant human IL-6 [4]): 1.22e+06 M⁻¹ s⁻¹
B7: anti-IL-6 antibody, heavy chain variant I (M34I, G66D, I108V) / light chain variant III (M32L, M50D, N52S, M88Q) (antibody, human IgG1, V domains shown)
VH: EVQLVESGGGLVQPGGSLRLSCAASGFTFSPFAISWVRQAPGKGLEWVAKISPGGSWTYYSDTVTDRFTFSLDTSKSTAYLQMNSLRAEDTAVYYCARQLWGYYALDVWGQGTLVTVSS
VL: DIQLTQSPSSLSASVGDRVTITCSASISVSYLYWYQQKPGKAPKLLIYDDSSLASGVPSRFSGSGSGTDFTLTISSLQPEDFATYYCQQWSGYPYTFGQGTKVEIK
notes: also called M34I, G66D, I108V/ M32L, M50D, N52S, M88Q; I/III

Continued, binder first:

B1: anti-IL-6 antibody, heavy chain WT, light chain I27L (antibody, IgG1, V domains shown)
VH: EVQLVESGGGLVQPGGSLRLSCAASGFTFSPFAMSWVRQAPGKGLEWVAKISPGGSWTYYSDTVTGRFTFSLDTSKSTAYLQMNSLRAEDTAVYYCARQLWGYYALDIWGQGTLVTVSS
VL: DIQLTQSPSSLSASVGDRVTITCSASLSVSYMYWYQQKPGKAPKLLIYDMSNLASGVPSRFSGSGSGTDFTLTISSLQPEDFATYYCMQWSGYPYTFGQGTKVEIK
notes: as for B3
Kd (recombinant human IL-6 [1]): 0.332 nM
koff (recombinant human IL-6 [1]): 0.000145 s⁻¹
kon (recombinant human IL-6 [1]): 437000 M⁻¹ s⁻¹
Kd (recombinant human IL-6 [2]): 0.553 nM
koff (recombinant human IL-6 [2]): 0.000449 s⁻¹
kon (recombinant human IL-6 [2]): 811000 M⁻¹ s⁻¹

B2: anti-IL-6 antibody, light chain M32L (heavy chain WT) (antibody, V domains shown)
VH: EVQLVESGGGLVQPGGSLRLSCAASGFTFSPFAMSWVRQAPGKGLEWVAKISPGGSWTYYSDTVTGRFTFSLDTSKSTAYLQMNSLRAEDTAVYYCARQLWGYYALDIWGQGTLVTVSS
VL: DIQLTQSPSSLSASVGDRVTITCSASISVSYLYWYQQKPGKAPKLLIYDMSNLASGVPSRFSGSGSGTDFTLTISSLQPEDFATYYCMQWSGYPYTFGQGTKVEIK
notes: See note of m2; also called WT / M32L
Kd (recombinant human IL-6 [3]): 0.199 nM
koff (recombinant human IL-6 [3]): 0.000118 s⁻¹
kon (recombinant human IL-6 [3]): 591000 M⁻¹ s⁻¹
Kd (recombinant human IL-6 [4]): 0.395 nM
koff (recombinant human IL-6 [4]): 0.00035 s⁻¹
kon (recombinant human IL-6 [4]): 885000 M⁻¹ s⁻¹

B4: anti-IL-6 antibody, heavy chain variant II (M34W, G66D, I108V) / light chain variant III (M32L, M50D, N52S, M88Q) (antibody, V domains shown)
VH: EVQLVESGGGLVQPGGSLRLSCAASGFTFSPFAWSWVRQAPGKGLEWVAKISPGGSWTYYSDTVTDRFTFSLDTSKSTAYLQMNSLRAEDTAVYYCARQLWGYYALDVWGQGTLVTVSS
VL: DIQLTQSPSSLSASVGDRVTITCSASISVSYLYWYQQKPGKAPKLLIYDDSSLASGVPSRFSGSGSGTDFTLTISSLQPEDFATYYCQQWSGYPYTFGQGTKVEIK
notes: See note of m39; also called M34W, G66D, I108V/ M32L, M50D, N52S, M88Q; II/III
Kd (recombinant human IL-6 [3]): 0.37 nM
koff (recombinant human IL-6 [3]): 0.000173 s⁻¹
Kd (recombinant human IL-6 [4]): 0.507 nM
koff (recombinant human IL-6 [4]): 0.000551 s⁻¹
kon (recombinant human IL-6 [4]): 1.19e+06 M⁻¹ s⁻¹
